According to patent US20250295801A1, “CD25 ANTIBODIES, ANTIBODY DRUG CONJUGATES, AND USES THEREOF” (Seagen Inc., priority 2024, published 2025):
Substitutions are numbered along the chain they refer to.

T1: human CD25 on CD25 expressing cells (human, UniProt P01589 22-272)
T1 construct: Endogenous CD25 on human lymphoma lines (L540cy, Karpas-299) and on human Treg cells; also called CD25 on L540cy cells; CD25 on Karpas-299 cells
T1 sequence: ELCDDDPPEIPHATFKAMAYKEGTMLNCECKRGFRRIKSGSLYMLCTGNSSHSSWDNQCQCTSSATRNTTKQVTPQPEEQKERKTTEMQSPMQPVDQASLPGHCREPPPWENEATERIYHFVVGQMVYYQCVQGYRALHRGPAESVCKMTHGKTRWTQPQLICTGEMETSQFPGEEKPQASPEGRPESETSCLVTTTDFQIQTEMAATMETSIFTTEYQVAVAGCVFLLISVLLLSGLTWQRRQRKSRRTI

T2: recombinant human CD25 (human, UniProt P01589 22-213, limits assumed, biotinylated in the Octet kinetic assay (site not stated))
T2 construct: Soluble recombinant antigen; It was coated on plates for ELISA and used as bought biotinylated protein for BLI; The ELISA and BLI reagents may be different constructs; also called hCD25; CD25/IL2RA
T2 sequence: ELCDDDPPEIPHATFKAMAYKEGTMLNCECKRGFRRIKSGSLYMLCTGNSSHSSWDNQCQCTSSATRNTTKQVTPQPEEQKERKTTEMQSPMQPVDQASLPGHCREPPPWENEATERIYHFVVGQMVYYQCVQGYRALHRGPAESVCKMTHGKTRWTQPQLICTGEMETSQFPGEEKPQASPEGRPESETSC

B1: SG25Ab-9 variant YH27A (antibody, V domains shown)
VH: QVQLVQSGAEVKKPGESLKISCKGSGASSTSYWIGWVRQMPGKGLEWMGIIYPGDSDTRYSPSFQGQVTISADKSISTAYLQWSSLKASDTAMYYCARLGSYYAFDIWGRGTMVTVSS
VL: QSALTQPASVSASPGQSITISCTGTSSDVGAYIYVSWYQQLSGKPPKLILYDVSKRPSGISDRFSGSKSGNTASLTISGLQADDEADYYCSSYTRSSTWVFGGGTQLTVLG
B2: SG25Ab-9 variant YH32A (antibody, V domains shown)
VH: B1 VH with A27Y, Y32A
VL: B1 VL
B3: SG25Ab-9 variant YH52A (antibody, V domains shown)
VH: B1 VH with A27Y, Y52A
VL: B1 VL
B4: SG25Ab-9 variant SH28W (antibody, V domains shown)
VH: B1 VH with A27Y, S28W
VL: B1 VL
B5: SG25Ab-9 variant GH53Y (antibody, V domains shown)
VH: B1 VH with A27Y, G54Y
VL: B1 VL
B6: SG25Ab-9 variant SH55N (antibody, V domains shown)
VH: B1 VH with A27Y, S56N
VL: B1 VL
B7: SG25Ab-9 variant YH99A (antibody, V domains shown)
VH: B1 VH with A27Y, Y103A
VL: B1 VL
notes: Kabat-type numbering, not linear
B8: SG25Ab-9 variant DH54K (antibody, V domains shown)
VH: B1 VH with A27Y, D55K
VL: B1 VL
B9: SG25Ab-9 variant AH100F (antibody, V domains shown)
VH: B1 VH with A27Y, A104F
VL: B1 VL
B10: SG25Ab-9 variant DH56K (antibody, V domains shown)
VH: B1 VH with A27Y, D57K
VL: B1 VL
B11: SG25Ab-9 variant FH100AA (antibody, V domains shown)
VH: B1 VH with A27Y, F105A
VL: B1 VL
B12: SG25Ab-9 variant GH96W (antibody, V domains shown)
VH: B1 VH with A27Y, G100W
VL: B1 VL
B13: SG25Ab-9 variant FH100AN (antibody, V domains shown)
VH: B1 VH with A27Y, F105N
VL: B1 VL

target: T1, human CD25 on CD25 expressing cells; experiment: saturation binding by flow cytometry on L540cy cells (CD25: 55,000 per cell), MFI (Gmean)
Experimental: (§1) For cellular binding analysis by FACS, cells expressing the target protein of interest (2×10⁵) were treated with a serial dilution of indicated antibody in staining buffer (PBS, 5% FBS, 0.2% NaN₃). Samples were incubated for 1 hour on ice and washed twice with ice-cold staining buffer. Cells were resuspended with anti-human IgG-AF488 or IgG-AF647 (JacksonImmunoResearch), 1:200 dilution in staining buffer) for 1 hour on ice. Cells were washed twice with ice cold staining buffer and resuspended in staining buffer. Labeled cells were examined by flow cytometry on an Invitrogen Attune NxT flow cytometer gated to exclude nonviable cells, and the data analyzed using FlowJo10 software. When determined, the KD was calculated using GraphPad Prism 6 using non-linear regression.
(§2) Saturation binding analysis was also performed using high CD25 expressing L540cy cells.

Compared with B1, B2 is 5.6-fold higher in “EC50 (read off the curve)” value: about 0.9 nM for the first, about 5 nM for the second.

Compared with B3, B4 is 4.4-fold lower in “EC50 (read off the curve)” value: about 4 nM for the first, about 0.9 nM for the second.

First: B5
Second: B6
The “EC50 (read off the curve)” value of the first is higher: 1 to 2 nM for the first, about 0.9 nM for the second.

target: T2, recombinant human CD25; experiment: BLI kinetics (Octet RED384), biotinylated hCD25 on SAX tips, 1:1 global fit
Experimental: Biotinylated recombinant human CD25 was obtained from Acro Biosystems. Biotinylated hCD25 protein was loaded on SAX (High sensitivity streptavidin) tips at 0.8 nM loading density. Affinity measurements were run using a ForteBio Octet RED384 instrument in the kinetic buffer comprising 1×PBS, 0.1% BSA, 0.02% Tween20, pH 7.4. Association measurements were performed for 300 seconds and disassociation measurements were performed for 900 seconds. Each curve was reference subtracted and modeled using a 1:1 global fit. KD results are reported as kₐ divided by kd.

In order of falling Kd:
1. B10  151 nM
2. B8  24.2 nM
3. B7  21.5 nM
4. B9  3.9 nM
5. B3  1.3 nM
6. B2  0.8 nM
7. B11  0.6 nM
8. B12  0.5 nM
9. B13  0.3 nM
10. B1  0.1 nM
11. B4  0.1 nM
12. B5  0.1 nM
13. B6  0.1 nM

In order of falling koff:
1. B7  0.0085 s⁻¹
2. B8  0.0079 s⁻¹
3. B10  0.004 s⁻¹
4. B9  0.0012 s⁻¹
5. B12  0.001 s⁻¹
6. B3  0.001 s⁻¹
7. B2  0.00023 s⁻¹
8. B11  0.00017 s⁻¹
9. B5  8.1e-05 s⁻¹
10. B13  5.7e-05 s⁻¹
11. B4  3.8e-05 s⁻¹
12. B6  2.8e-05 s⁻¹
13. B1  2.6e-05 s⁻¹

In order of falling kon:
1. B12  1.9e+06 M⁻¹ s⁻¹
2. B5  1.6e+06 M⁻¹ s⁻¹
3. B3  780000 M⁻¹ s⁻¹
4. B7  390000 M⁻¹ s⁻¹
5. B8  330000 M⁻¹ s⁻¹
6. B9  310000 M⁻¹ s⁻¹
7. B2  300000 M⁻¹ s⁻¹
8. B4  300000 M⁻¹ s⁻¹
9. B11  290000 M⁻¹ s⁻¹
10. B1  240000 M⁻¹ s⁻¹
11. B6  220000 M⁻¹ s⁻¹
12. B13  200000 M⁻¹ s⁻¹
13. B10  26000 M⁻¹ s⁻¹

target: T1, human CD25 on CD25 expressing cells; experiment: saturation binding by flow cytometry on L540cy cells (CD25: 55,000 per cell), MFI (Gmean); remark: another data set of the same source
Experimental: as §1, §2

B11 and B13 fall in the same range of “EC50 (read off the curve)” value: 1 to 2 nM for the first, 1 to 2 nM for the second.

target: T2, recombinant human CD25; experiment: saturation binding ELISA on recombinant human CD25
Experimental: (§3) Saturation binding ELISA experiments were performed using soluble recombinant antigens, which were diluted to an appropriate concentration in 50 mM carbonate buffer, pH 9.6. To each well of a 96- or 384-well Maxisorb ELISA plate was added 100 μL of soluble antigen. The plate was sealed and stored at 4° C. overnight. The plate was then washed 3-5 times with PBS-T was buffer (PBS, pH 7.4+0.05% Tween-20). The wells were blocked using 300 μL/well of PBS-T buffer containing BSA for 1 hour at room temperature, then washed 3-5 times with PBS-T. Dilutions of antibodies were prepared in blocking buffer and added to each well in a volume of 100 μL. The antibodies were incubated for 1 hour at room temperature, and then washed 3-5 times with PBS-T. HRP-conjugated secondary antibodies (anti-human Fc) were then added and incubated for 1 hour at room temperature. The plate was washed 3-5 times with PBS-T. The ELISA was developed by adding 100 μL of TMB solution and incubating for 3-15 min at room temperature. To stop the reaction, 100 μL of 1 N sulfuric acid was added to each well. The absorbance at 450 nm was determined using a Spectramax 190 plate reader (Molecular Biosciences) and the data plotted using GraphPad Prism 6.

In order of rising “EC50 (read off the curve)” value:
1. B13  ~0.3 nM
2. B11  ~0.8 nM

target: T2, recombinant human CD25; experiment: saturation binding ELISA on recombinant human CD25; remark: another data set of the same source
Experimental: as §3

In order of rising “EC50 (read off the curve)” value:
1. B1  ~0.2 nM
2. B4  ~0.2 nM
3. B5  ~0.2 nM
4. B6  ~0.2 nM
